What was measured:
[1] = molecular target: T1, recombinant 6×Histidine tagged human SORT1 (Homo sapiens, UniProt Q99523); assay: Surface plasmone resonance binding of Naglu-SPP to SORT1
T1 sequence (Q99523 78-831): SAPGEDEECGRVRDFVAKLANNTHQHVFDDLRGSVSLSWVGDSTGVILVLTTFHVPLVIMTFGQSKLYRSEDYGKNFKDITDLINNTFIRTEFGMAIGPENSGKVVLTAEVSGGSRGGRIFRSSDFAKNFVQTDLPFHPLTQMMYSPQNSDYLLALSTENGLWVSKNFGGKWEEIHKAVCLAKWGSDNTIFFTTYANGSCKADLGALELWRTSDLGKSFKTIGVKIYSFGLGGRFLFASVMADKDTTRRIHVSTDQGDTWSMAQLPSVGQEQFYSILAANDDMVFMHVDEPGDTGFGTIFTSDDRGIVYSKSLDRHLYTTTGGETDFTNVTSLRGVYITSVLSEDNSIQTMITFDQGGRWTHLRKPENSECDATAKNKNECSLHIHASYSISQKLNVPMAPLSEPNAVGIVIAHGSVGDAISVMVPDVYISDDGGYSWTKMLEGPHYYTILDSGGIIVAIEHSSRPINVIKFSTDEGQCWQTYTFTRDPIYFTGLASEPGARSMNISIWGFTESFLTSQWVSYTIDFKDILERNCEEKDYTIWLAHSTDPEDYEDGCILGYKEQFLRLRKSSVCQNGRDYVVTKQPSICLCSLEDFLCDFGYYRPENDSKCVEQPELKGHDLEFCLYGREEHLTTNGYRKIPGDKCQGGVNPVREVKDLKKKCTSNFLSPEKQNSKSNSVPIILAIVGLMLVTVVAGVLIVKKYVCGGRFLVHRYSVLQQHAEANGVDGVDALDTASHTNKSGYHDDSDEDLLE
Description: Studies were also carried out to determine the binding properties of Naglu-SPP and evaluate its specificity for SORT1 by surface plasmone resonance (SPR), a commonly used standard technique. Briefly, anti-His mAb (capturing molecule) was diluted in immobilization buffer and bound on the dextran surface of a SPR sensor chip housed in a microfluidic system. Next, a solution containing recombinant 6×Histidine tagged human SORT1 (ligand) was injected into the microflow system and run over the surface-bound anti-His mAbs to form a “capture complex.” A solution containing purified Naglu-SPP protein (analyte) was then injected into the device. As the solution moved over the SPR sensor chip, the analyte bound to the capture complex and an increase in SPR signal (expressed in response units, RU) was observed. Finally, a solution without analyte was injected into the microfluidic device to detach bound […] from the capture complex, resulting in a decrease in SPR signal. The detailed experimental conditions are described in Table 6 below.

[2] = system: wild-type rats; assay: Immunohistochemistry of Naglu protein in brain tissue after intrathecal administration; assay type: in vivo
Description: To evaluate biodistribution of the SORT1-binding Naglu fusion proteins, an in vivo study was conducted using wild-type rats subjected to intrathecal administration of vehicle control (PBS), rhNaglu, Naglu-IGFII, Naglu-SPP, Naglu-SapDC or Naglu-tPRGN. Details of the experimental design are provide in Table 9 below. Previous experiments had shown that Naglu-IGFII but not rhNaglu penetrates into brain tissue and is targeted to lysosomes after intrathecal injection. Accordingly, rhNaglu and Naglu-IGFII were utilized in this study as negative and positive controls, respectively.
Rats were sacrificed either 4 or 24 hours post intrathecal administration of the respective fusion protein. Brain tissue samples were collected, fixed in 10% NBF and processed for paraffin embedding. 5 μm paraffin sections from each tissue assayed were subjected to immunostaining using an anti-human Naglu antibody.

B1: Naglu-SPP: Fusion protein of human Naglu and SORT1 propeptide (SPP) via GAG3 linker; SEQ ID NO:17 (full-length), SEQ ID NO:22 (protein)
chain: MEAVAVAAAVGVLLLAGAGGAAGDEAREAAAVRALVARLLGPGPAADFSVSVERALAAKPGLDTYSLGGGGAARVRVRGSTGVAAAAGLHRYLRDFCGCHVAWSGSQLRLPRPLPAVPGELTEATPNRYRYYQNVCTQSYSFVWWDWARWEREIDWMALNGINLALAWSGQEAIWQRVYLALGLTQAEINEFFTGPAFLAWGRMGNLHTWDGPLPPSWHIKQLYLQHRVLDQMRSFGMTPVLPAFAGHVPEAVTRVFPQVNVTKMGSWGHFNCSYSCSFLLAPEDPIFPIIGSLFLRELIKEFGTDHIYGADTFNEMQPPSSEPSYLAAATTAVYEAMTAVDTEAVWLLQGWLFQHQPQFWGPAQIRAVLGAVPRGRLLVLDLFAESQPVYTRTASFQGQPFIWCMLHNFGGNHGLFGALEAVNGGPEAARLFPNSTMVGTGMAPEGISQNEVVYSLMAELGWRKDPVPDLAAWVTSFAARRYGVSHPDAGAAWRLLLRSVYNCSGEACRGHNRSPLVRRPSLQMNTSIWYNRSDVFEAWRLLLTSAPSLATSPAFRYDLLDLTRQAVQELVSLYYEEARSAYLSKELASLLRAGGVLAYELLPALDEVLASDSRFLLGSWLEQARAAAVSEAEADFYEQNSRYQLTLWGPEGNILDYANKQLAGLVANYYTPRWRLFLEALVDSVAQGIPFQQHQFDKNVFQLEQAFVLSKQRYPSQPRGDTVDLAKKIFLKYYPRWVAGSWGAPGGGGGAAAAAGGGGGGAPGGGGGAAAAAGGGGGGAPGGGGGAAAAAGGGGGGAPQDRLDAPPPPAAPLPRWSGPIGVSWGLRAAAAGGAFPRGGRWRR
[1]; SPR, Naglu-SPP 0 to 20 nM
  average association constant (Ka): approximately 1.1×10^6 1/Ms
  dissociation constant (Kd): approximately 7.1×10^−4 1/s
[1]; all concentrations tested (0 to 20 nM)
  binding to SORT1: strong binding
[2]; 4 and 24 hours post treatment
  Naglu immunostaining in cerebral cortex / brain parenchyma: positive staining
[2]; 24 hours post injection
  Naglu immunostaining in cerebellum and hippocampal region: strong Naglu signal

— patent US10603364B2, “Lysosomal targeting and uses thereof” (Shire Human Genetic Therapies, Inc., priority 2014, dated 2020)
